Experimental data: paper PMC6491520, “Antimicrobial Peptide LL-37 Facilitates Intracellular Uptake of RNA Aptamer Apt 21-2 Without Inducing an Inflammatory or Interferon Response”

Legend:
[1] = molecular target: T1, LL-37 (cathelicidin antimicrobial peptide) (UniProt P49913 134-170); experiment: filter binding; apparent KD from 50% loss of free aptamer; 100 nM RNA; 1 h on ice, 100 nM aptamer, 0-100 uM LL-37; binding buffer not stated; EMSA loading with 60 mM KCl, 10 mM Tris pH 7.6, 40% glycerol; 7% native PAGE in TBE; conditions: label: 5' 32P
T1 chain: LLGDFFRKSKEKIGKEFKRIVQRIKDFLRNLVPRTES

[2] = molecular target: T1, LL-37 (cathelicidin antimicrobial …); experiment: EMSA; apparent KD from 50% loss of free aptamer; 100 nM RNA; 1 h on ice, 100 nM aptamer, 0-100 uM LL-37; binding buffer not stated; EMSA loading with 60 mM KCl, 10 mM Tris pH 7.6, 40% glycerol; 7% native PAGE in TBE; conditions: label: 5' 32P

Q: With GGUCUAGCCGGAGGAGUCAGUAAUCGGUAGACC (XNA, 2'-fluoro C and U) [Apt 21-2] as the binder, how does the Kd [1] read?
A: ~2000 nM

Q: And the Kd [2]?
A: ~2000 nM
